Laboratory results published in patent US20260216242A1 (ALMAC DISCOVERY, published 2026).
Residue numbers refer to the chain shown, from its start. In names and notes the source's numbering stands. One block for each binder: values may come before it.

Experiments:
[1] = target: T1, human ALPPL2 (alkaline phosphatase, germ cell type) expressed on the surface of CHO cells (human, UniProt P10696 20-503); experiment: flow cytometry on CHO-ALPPL2 cells, apparent KD (KDapp)
T1 construct: whole, on cells; The cell-surface form has none; also called CHO-ALPPL2; hALPPL2
T1 sequence (P10696 20-503): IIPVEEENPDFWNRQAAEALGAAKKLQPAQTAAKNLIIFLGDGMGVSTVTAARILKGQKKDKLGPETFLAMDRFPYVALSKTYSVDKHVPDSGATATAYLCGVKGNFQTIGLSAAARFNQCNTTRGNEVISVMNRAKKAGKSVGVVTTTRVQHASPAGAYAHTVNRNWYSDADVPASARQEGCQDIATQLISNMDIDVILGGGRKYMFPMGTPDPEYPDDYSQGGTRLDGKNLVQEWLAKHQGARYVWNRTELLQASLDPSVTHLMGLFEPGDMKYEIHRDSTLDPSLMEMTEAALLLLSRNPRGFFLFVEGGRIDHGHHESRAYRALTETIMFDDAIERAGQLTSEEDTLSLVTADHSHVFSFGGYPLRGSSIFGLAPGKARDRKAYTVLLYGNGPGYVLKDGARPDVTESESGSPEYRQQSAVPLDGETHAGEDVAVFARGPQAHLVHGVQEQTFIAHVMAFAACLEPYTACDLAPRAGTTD
Procedure: (§1) Biparatopic VHH-hFc drug conjugates were assessed for human ALPP, ALPPL2, ALPI and ALPL cell-surface binding by flow cytometry. Binders were screened on CHO cells stably expressing human ALPP, ALPPL2, ALPI or ALPL.
(§2) Cell surface binding of test agents to hALPP isoforms was characterized in four CHO-ALPP isoform transfectant cell lines (CHO-ALPP, CHO-ALPPL2, CHO-ALPI and CHO-ALPL) and the resulting KDapp values determined. Adherent cells were detached from tissue culture flasks by incubating with 0.1% EDTA/PBS solution at 37° C. for […] or until cells detached easily. Cells were re-suspended in ice-cold PBS/2% FCS in 15 ml tubes and centrifuged at 1700 rpm for 5 mins at 4° C. Supernatant was removed and the cell pellet re-suspended in PBS/2% FCS. […] Cells were incubated with 100 μl of test agents at a range of concentrations, plus controls for 1 hr on ice. The sample plate was centrifuged at 1700 rpm for 5 mins at 4° C. The supernatant was removed, and a wash performed by re-suspending the cell pellets in 0.25 mL of ice-cold PBS/2% FCS using a multichannel pipette. Samples were again centrifuged at 1700 rpm for 5 min at 4° C. Supernatant was removed and two further washes performed as described. After the final wash and centrifugation step, excess liquid was removed by blotting the plate on tissue paper. Binding of VHH-hFc agents was determined by adding 100 μl of Fitc-anti-human Ab (ThermoFisher) and incubating for 30 mins on ice in the dark. Wash steps were performed as described previously. All cell pellets were finally re-suspended in 0.28 ml of ice-cold PBS/2% FCS and left on ice in the dark prior to analysis on a Merck-Millipore Guava EasyCyte HT or Thermo Fisher Attune N×T flow cytometer.

[2] = target: T2, human ALPI (intestinal alkaline phosphatase) expressed on the surface of CHO cells (human, UniProt P09923 20-503); experiment: flow cytometry, CHO-ALPI cells
T2 construct: whole, on cells; The cell-surface form has none; also called CHO-ALPI; hALPI
T2 sequence (looked up): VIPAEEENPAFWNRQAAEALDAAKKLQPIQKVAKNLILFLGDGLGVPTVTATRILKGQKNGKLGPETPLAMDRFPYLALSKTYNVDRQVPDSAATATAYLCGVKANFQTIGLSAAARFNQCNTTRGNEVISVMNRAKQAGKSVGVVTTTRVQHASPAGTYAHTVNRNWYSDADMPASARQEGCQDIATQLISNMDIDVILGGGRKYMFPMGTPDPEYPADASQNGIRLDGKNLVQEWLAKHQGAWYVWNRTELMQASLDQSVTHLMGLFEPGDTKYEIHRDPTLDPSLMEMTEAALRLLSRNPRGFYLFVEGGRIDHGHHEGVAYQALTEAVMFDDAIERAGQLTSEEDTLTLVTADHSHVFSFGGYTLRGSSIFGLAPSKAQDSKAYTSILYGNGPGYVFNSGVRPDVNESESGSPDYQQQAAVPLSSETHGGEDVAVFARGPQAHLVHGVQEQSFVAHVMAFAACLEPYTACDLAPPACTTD

[3] = target: T3, human ALPL (tissue non-specific alkaline phosphatase) expressed on the surface of CHO cells (human, UniProt P05186 18-501); experiment: flow cytometry, CHO-ALPL cells
T3 construct: whole, on cells; The cell-surface form has none; also called CHO-ALPL; hALPL
T3 sequence (looked up): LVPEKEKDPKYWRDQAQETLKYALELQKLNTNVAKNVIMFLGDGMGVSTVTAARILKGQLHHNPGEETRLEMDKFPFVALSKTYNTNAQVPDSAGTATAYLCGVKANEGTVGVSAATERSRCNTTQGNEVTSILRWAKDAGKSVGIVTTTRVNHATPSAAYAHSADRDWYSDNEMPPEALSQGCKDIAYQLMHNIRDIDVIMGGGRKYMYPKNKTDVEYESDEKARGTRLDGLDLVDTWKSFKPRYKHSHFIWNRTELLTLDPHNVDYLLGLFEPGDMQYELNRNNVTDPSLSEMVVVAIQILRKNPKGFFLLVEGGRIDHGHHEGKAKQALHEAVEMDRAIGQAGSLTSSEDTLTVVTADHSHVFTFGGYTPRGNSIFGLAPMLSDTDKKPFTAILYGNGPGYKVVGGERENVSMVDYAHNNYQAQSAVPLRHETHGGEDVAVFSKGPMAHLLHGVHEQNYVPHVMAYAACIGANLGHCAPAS

[4] = target: T4, human ALPP (alkaline phosphatase, placental type) expressed on the surface of CHO cells (human, UniProt P05187 23-506); experiment: flow cytometry on CHO-ALPP cells, apparent KD (KDapp)
T4 construct: also called CHO-ALPP; hALPP
T4 sequence (P05187 23-506 limits assumed): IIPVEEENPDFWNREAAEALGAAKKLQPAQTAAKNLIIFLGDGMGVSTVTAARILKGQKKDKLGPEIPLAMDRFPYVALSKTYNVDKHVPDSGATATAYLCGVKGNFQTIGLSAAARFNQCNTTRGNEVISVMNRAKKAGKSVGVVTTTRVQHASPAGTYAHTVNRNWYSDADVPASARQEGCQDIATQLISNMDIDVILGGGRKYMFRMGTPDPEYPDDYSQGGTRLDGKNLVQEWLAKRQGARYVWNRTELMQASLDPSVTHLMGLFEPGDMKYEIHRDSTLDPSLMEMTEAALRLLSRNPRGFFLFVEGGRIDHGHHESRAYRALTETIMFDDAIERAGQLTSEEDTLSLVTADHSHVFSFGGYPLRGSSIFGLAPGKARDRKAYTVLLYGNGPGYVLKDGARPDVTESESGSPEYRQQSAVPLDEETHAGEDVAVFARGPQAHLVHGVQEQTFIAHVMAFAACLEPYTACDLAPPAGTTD
Procedure: as §1, §2

[5] = target: T1, human ALPPL2 (alkaline phosphatase, …); experiment: cell-based or functional assay
[6] = target: T3, human ALPL (tissue non-specific …); experiment: cell-based or functional assay
[7] = target: T2, human ALPI (intestinal alkaline …); experiment: cell-based or functional assay
[8] = target: T2, human ALPI (intestinal alkaline …); experiment: flow cytometry on CHO-ALPI cells
[9] = target: T4, human ALPP (alkaline phosphatase, …); experiment: cell-based or functional assay

- Kd [1]: 4.7 nM
- Kd [4]: 6.8 nM
B1: D10 E10-hFc (S239/442C T366Y/Y407T), [G4S]3 linker, MC-vc-PAB-MMAE conjugate, #636 (Fc fusion, DAR 4)
chain 1: QVQLVESGGGLVQPGGSLRLSCAASGSIFSVNTMGWYRQAPGKQRDLVAVATSGGTIHYADSVKGRFTISRDNAKNTVYLQMNSLKPEDTAVYYCNLVVPYGMIAGDHDYWGQGTKVTVSSGGGGSGGGGSGGGGSEPKSSDKTHTCPPCPAPELLGGPCVFLFPPKPKDTLMISRTPEVTCVVVDVSHEDPEVKFNWYVDGVEVHNAKTKPREEQYNSTYRVVSVLTVLHQDWLNGKEYKCKVSNKALPAPIEKTISKAKGQPREPQVYTLPPSRDELTKNQVSLYCLVKGFYPSDIAVEWESNGQPENNYKTTPPVLDSDGSFFLYSKLTVDKSRWQQGNVFSCSVMHEALHNHYTQKSLCLSPGK
chain 2: QVQLVESGGGLVQAGGSLRLSCAVSGRALSDYNIGWFRQAPGKEREFVARKTWDGSSTRYDDSVKGRFTVSIEDAKNTAYLQMSSLKTEDTAVYYCAAGRYSRARGWEYDYWGQGTQVTVSSGGGGSGGGGSGGGGSEPKSSDKTHTCPPCPAPELLGGPCVFLFPPKPKDTLMISRTPEVTCVVVDVSHEDPEVKFNWYVDGVEVHNAKTKPREEQYNSTYRVVSVLTVLHQDWLNGKEYKCKVSNKALPAPIEKTISKAKGQPREPQVYTLPPSRDELTKNQVSLTCLVKGFYPSDIAVEWESNGQPENNYKTTPPVLDSDGSFFLTSKLTVDKSRWQQGNVFSCSVMHEALHNHYTQKSLCLSPGK
modifications: MC-vc-PAB-MMAE on Cys of S239C and S442C (EU numbering)
notes: Biparatopic knob-into-hole VHH-hFc heterodimer, DAR 4; also called D10-E10 hFc-vcPAB-MMAE; D10-E10 hFc-vc-MMAE
- binding result [2]: no binding (tested: 350 nM (highest concentration))
- binding result [3]: no binding (tested: 350 nM (highest concentration))
- IC50 at 96 h, cell-killing of CHO-ALPPL2 cells [5]: 12.5 nM
- IC50 at 96 h, cell-killing of CHO-ALPL cells [6]: > 1000 nM
- IC50 at 96 h, cell-killing of CHO-ALPI cells [7]: > 1000 nM

- Kd [1]: 3.5 nM
- Kd [4]: 7.4 nM
B2: D10 F05-hFc (S239/442C T366Y/Y407T), [G4S]3 linker, MC-vc-PAB-MMAE conjugate, #637 (Fc fusion, DAR 4)
chain 1: B1 chain 1
chain 2: B1 chain 2 with V24A, L29F, S30G, K51R, E73D, D74N, S84N, A104V
modifications: MC-vc-PAB-MMAE on Cys of S239C and S442C (EU numbering)
notes: Biparatopic knob-into-hole VHH-hFc heterodimer, DAR 4; also called D10-F05 hFc-vcPAB-MMAE; D10-F05 hFc-vc-MMAE
- binding result [2]: no binding (tested: 350 nM (highest concentration))
- binding result [3]: no binding (tested: 350 nM (highest concentration))
- IC50 at 96 h, cell-killing of CHO-ALPPL2 cells [5]: 13 nM
- IC50 at 96 h, cell-killing of CHO-ALPL cells [6]: > 1000 nM
- IC50 at 96 h, cell-killing of CHO-ALPI cells [7]: > 1000 nM

- Kd [1]: 5 nM
- MFI on CHO-ALPI cells at 350 nM as percent of MFI on CHO-ALPP cells (KDapp not-determinable) [8]: ≤ 1%
- Kd [4]: 14.4 nM
B3: D10 A06-hFc (S239/442C T366Y/Y407T), [G4S]1 linker, MC-vc-PAB-MMAE conjugate, #676 (Fc fusion, DAR 4)
chain 1: QVQLVESGGGLVQPGGSLRLSCAASGSIFSVNTMGWYRQAPGKQRDLVAVATSGGTIHYADSVKGRFTISRDNAKNTVYLQMNSLKPEDTAVYYCNLVVPYGMIAGDHDYWGQGTKVTVSSGGGGSEPKSSDKTHTCPPCPAPELLGGPCVFLFPPKPKDTLMISRTPEVTCVVVDVSHEDPEVKFNWYVDGVEVHNAKTKPREEQYNSTYRVVSVLTVLHQDWLNGKEYKCKVSNKALPAPIEKTISKAKGQPREPQVYTLPPSRDELTKNQVSLYCLVKGFYPSDIAVEWESNGQPENNYKTTPPVLDSDGSFFLYSKLTVDKSRWQQGNVFSCSVMHEALHNHYTQKSLCLSPGK
chain 2: QVHLVESGGGLVQAGGSLRLSCAASGRTFLSMGWFRQAPGKEREFVAAISWTGGSTGYADSVKGRFTISRESDKETMYLQMNSLKPEDTAVYYCAARGDVYYGGDDATRYKYWGQGTQVTVSSGGGGSEPKSSDKTHTCPPCPAPELLGGPCVFLFPPKPKDTLMISRTPEVTCVVVDVSHEDPEVKFNWYVDGVEVHNAKTKPREEQYNSTYRVVSVLTVLHQDWLNGKEYKCKVSNKALPAPIEKTISKAKGQPREPQVYTLPPSRDELTKNQVSLTCLVKGFYPSDIAVEWESNGQPENNYKTTPPVLDSDGSFFLTSKLTVDKSRWQQGNVFSCSVMHEALHNHYTQKSLCLSPGK
modifications: MC-vc-PAB-MMAE on Cys of S239C and S442C (EU numbering)
notes: Biparatopic knob-into-hole VHH-hFc heterodimer, DAR 4; The assignment of T366Y to the first named VHH and Y407T to the second follows the order of the name; No paragraph spells out this pair; also called D10-A06-hFc-vcPAB-MMAE; D10-A06 hFc-vc-MMAE
- binding result [3]: no binding (tested: 350 nM (highest concentration))
- IC50 at 96 h, cell-killing of CHO-ALPL cells [6]: > 1000 nM
- IC50 at 96 h, cell-killing of CHO-ALPP cells [9]: 5 nM
- IC50 at 96 h, cell-killing of CHO-ALPI cells [7]: > 1000 nM

- Kd [1]: 5 nM
- Kd [4]: 6.9 nM
B4: D10 E10-hFc (S239/442C T366Y/Y407T), [G4S]1 linker, MC-vc-PAB-MMAE conjugate, #678 (Fc fusion, DAR 4)
chain 1: B3 chain 1
chain 2: QVQLVESGGGLVQAGGSLRLSCAVSGRALSDYNIGWFRQAPGKEREFVARKTWDGSSTRYDDSVKGRFTVSIEDAKNTAYLQMSSLKTEDTAVYYCAAGRYSRARGWEYDYWGQGTQVTVSSGGGGSEPKSSDKTHTCPPCPAPELLGGPCVFLFPPKPKDTLMISRTPEVTCVVVDVSHEDPEVKFNWYVDGVEVHNAKTKPREEQYNSTYRVVSVLTVLHQDWLNGKEYKCKVSNKALPAPIEKTISKAKGQPREPQVYTLPPSRDELTKNQVSLTCLVKGFYPSDIAVEWESNGQPENNYKTTPPVLDSDGSFFLTSKLTVDKSRWQQGNVFSCSVMHEALHNHYTQKSLCLSPGK
modifications: MC-vc-PAB-MMAE on Cys of S239C and S442C (EU numbering)
notes: Biparatopic knob-into-hole VHH-hFc heterodimer, DAR 4; also called D10-E10-hFc-vcPAB-MMAE; D10-E10 hFc-vc-MMAE
- binding result [2]: no binding (tested: 350 nM (highest concentration))
- binding result [3]: no binding (tested: 350 nM (highest concentration))
- IC50 at 96 h, cell-killing of CHO-ALPPL2 cells [5]: 12.8 nM
- IC50 at 96 h, cell-killing of CHO-ALPL cells [6]: > 1000 nM
- IC50 at 96 h, cell-killing of CHO-ALPI cells (estimated from data extrapolation) [7]: ~972 nM

- Kd [1]: 5.2 nM
- Kd [4]: 6.6 nM
B5: D10 F05-hFc (S239/442C T366Y/Y407T), [G4S]1 linker, MC-vc-PAB-MMAE conjugate, #679 (Fc fusion, DAR 4)
chain 1: B3 chain 1
chain 2: B4 chain 2 with V24A, L29F, S30G, K51R, E73D, D74N, S84N, A104V
modifications: MC-vc-PAB-MMAE on Cys of S239C and S442C (EU numbering)
notes: Biparatopic knob-into-hole VHH-hFc heterodimer, DAR 4; also called D10-F05-hFc-vcPAB-MMAE; D10-F05 hFc-vc-MMAE
- binding result [2]: no binding (tested: 350 nM (highest concentration))
- binding result [3]: no binding (tested: 350 nM (highest concentration))
- IC50 at 96 h, cell-killing of CHO-ALPPL2 cells [5]: 16.1 nM
- IC50 at 96 h, cell-killing of CHO-ALPL cells [6]: > 1000 nM
- IC50 at 96 h, cell-killing of CHO-ALPI cells [7]: > 1000 nM
